The record followed here is patent publication US20080167229A1 (Dana-Farber, published 2008).

In assay [1] the target is T1, endogenous USP1, full length (HeLa and 293T cells) (human, UniProt O94782 1-785).
T1 construct: Full length endogenous protein detected in immunoprecipitates; also called Ubiquitin Specific Protease 1
T1 sequence: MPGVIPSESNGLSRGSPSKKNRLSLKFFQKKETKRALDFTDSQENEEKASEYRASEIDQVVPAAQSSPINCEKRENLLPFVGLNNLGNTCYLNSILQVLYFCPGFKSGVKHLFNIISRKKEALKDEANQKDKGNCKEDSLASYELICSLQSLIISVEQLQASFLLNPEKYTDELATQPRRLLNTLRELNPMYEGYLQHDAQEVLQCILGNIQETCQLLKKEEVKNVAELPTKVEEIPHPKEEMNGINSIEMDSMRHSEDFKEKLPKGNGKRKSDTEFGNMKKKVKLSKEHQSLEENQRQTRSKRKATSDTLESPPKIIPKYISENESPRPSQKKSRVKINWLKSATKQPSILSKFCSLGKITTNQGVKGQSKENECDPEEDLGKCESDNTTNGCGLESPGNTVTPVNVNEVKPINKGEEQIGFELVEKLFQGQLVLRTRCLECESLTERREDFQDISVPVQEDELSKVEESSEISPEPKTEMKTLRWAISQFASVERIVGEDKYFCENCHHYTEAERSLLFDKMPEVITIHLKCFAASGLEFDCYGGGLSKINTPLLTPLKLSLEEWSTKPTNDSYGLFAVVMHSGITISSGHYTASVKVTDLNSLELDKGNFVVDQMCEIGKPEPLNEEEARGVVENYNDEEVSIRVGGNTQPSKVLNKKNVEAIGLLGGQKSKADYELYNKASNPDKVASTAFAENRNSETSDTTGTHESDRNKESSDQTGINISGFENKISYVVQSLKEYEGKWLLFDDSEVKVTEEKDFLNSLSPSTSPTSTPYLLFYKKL
The experiment in a line: anti-Flag immunoprecipitation from transiently transfected 293T cells, anti-USP1 immunoblot. The procedure:
(§1) The Flag-tagged proteins were immunoprecipitated from cell lysates using anti-Flag antibodies. The immunoprecipitates were analyzed using the indicated antibodies. […] The concentrations of all proteins were 10 nM.
A general note: A western blot detects proteins with antibodies after separation by electrophoresis.

Assay [2] addresses T2, N-terminal cleavage product of endogenous USP1 (human, UniProt O94782 1-671).
T2 construct: the end at 671 is inferred from that; also called N-terminal USP1; N-terminal USP1 fragment
T2 sequence: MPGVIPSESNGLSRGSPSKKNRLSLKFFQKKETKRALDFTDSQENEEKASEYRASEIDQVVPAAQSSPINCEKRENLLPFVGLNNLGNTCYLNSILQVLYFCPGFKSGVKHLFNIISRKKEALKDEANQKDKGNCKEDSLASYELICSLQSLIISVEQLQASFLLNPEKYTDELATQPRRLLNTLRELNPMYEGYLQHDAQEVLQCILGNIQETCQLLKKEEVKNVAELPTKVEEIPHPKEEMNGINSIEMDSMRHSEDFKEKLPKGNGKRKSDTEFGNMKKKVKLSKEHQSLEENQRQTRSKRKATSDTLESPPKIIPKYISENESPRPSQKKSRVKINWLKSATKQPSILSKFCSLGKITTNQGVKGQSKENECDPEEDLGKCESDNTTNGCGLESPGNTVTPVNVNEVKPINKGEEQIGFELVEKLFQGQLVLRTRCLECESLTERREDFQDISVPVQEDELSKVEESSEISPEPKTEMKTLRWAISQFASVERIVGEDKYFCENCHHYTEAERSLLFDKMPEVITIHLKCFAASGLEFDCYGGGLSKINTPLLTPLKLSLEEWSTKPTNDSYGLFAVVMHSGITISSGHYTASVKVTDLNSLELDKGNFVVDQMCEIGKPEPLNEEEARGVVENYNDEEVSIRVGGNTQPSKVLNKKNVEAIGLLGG
The description is as above. The procedure: as §1

B1: Flag-tagged UAF1-Δ507-546 expressed in 293T cells (other)
chain: MAAHHRQNTAGRRKVQVSYVIRDEVEKYNRNGVNALQLDPALNRLFTAGRDSIIRIWSVNQHKQDPYIASMEHHTDWVNDIVLCCNGKTLISASSDTTVKVWNAHKGFCMSTLRTHKDYVKALAYAKDKELVASAGLDRQIFLWDVNTLTALTASNNTVTTSSLSGNKDSIYSLAMNQLGTIIVSGSTEKVLRVWDPRTCAKLMKLKGHTDNVKALLLNRDGTQCLSGSSDGTIRLWSLGQQRCIATYRVHDEGVWALQVNDAFTHVYSGGRDRKIYCTDLRNPDIRVLICEEKAPVLKMELDRSADPPPAIWVATTKSTVNKWTLKGIHNFRASGDYDNDCTNPITPLCTQPDQVIKGGASIIQCHILNDKRHILTKDTNNNVAYWDVLKACKVEDLGKVDFEDEIKKRFKMVYVPNWFSVDLKTGMLTITLDESDCFAAWVSAKDAGFSSPDGSDPKLNLGGLLLQALLEYWPRTHVNPMDEEENEVNHVNGEQENRVQKGNGYPQWVIDITVDKNMPKFNKIPFYLQPHASSGAKTLKKDRLSASDMLQVRKVMEHVYEKIINLDNESQTTSSSNNEKPGEQEKEEDIAVLAEEKIELLCQDQVLDPNMDLRTVKHFIWKSGGDLTLHYRQKS
notes: Deletion of aa 507-546 as printed; not shown: Flag tag
In the case of B1, the binding result in assay [1] and in assay [2] was “no binding” throughout.
